In patent US20240002477A1 (UNIVERSITY OF CHICAGO, published 2024):
Residue numbers refer to the chain shown, from its start. Like-named read-outs stand apart in the source and are kept apart here.

Columns and labels:
[1] = biological target: T1, SARS-CoV-2 open reading frame 8 protein (SARS-CoV-2, UniProt P0DTC8 16-121)
T1 construct: domain: Ig-like domain; also called ORF8

[2] = biological target: SARS-CoV-2 spike receptor binding domain (SARS-CoV-2, UniProt P0DTC2 319-541)
[3] = biological target: T2, SARS-CoV-2 open reading frame 8 (ORF8) protein (SARS-CoV-2, UniProt P0DTC8 16-121)
T2 construct: domain: Ig-like domains; also called ORFS [sic]
T2 sequence (P0DTC8 16-121, tags left off): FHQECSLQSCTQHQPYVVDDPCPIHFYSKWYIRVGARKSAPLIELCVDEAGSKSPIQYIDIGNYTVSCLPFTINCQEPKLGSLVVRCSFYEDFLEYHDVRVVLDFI

[4] = biological target: SARS-CoV-2 spike receptor binding domain (SARS-CoV-2, UniProt P0DTC2 319-541); remark: listed apart in the source
[5] = biological target: T3, SARS-CoV-2 open reading frame 8 protein (SARS-CoV-2, UniProt P0DTC8 16-121); remark: listed apart in the source
T3 construct: domain: Ig-like domain; also called ORF8

B1: S144-588 (antibody, V domains shown)
VH: QLQLQESGPGLVKPSETLSLTCTVSGGSISSSSYYWGWIRQPPGKGLEWIGSIYYSGSTYYNPSLKSRFTISVDTSKNQFSLKLSSVTAADTAVYYCAAYQRKLGYCRGNSCFSCFDPWGQGTLVTVSS
VL: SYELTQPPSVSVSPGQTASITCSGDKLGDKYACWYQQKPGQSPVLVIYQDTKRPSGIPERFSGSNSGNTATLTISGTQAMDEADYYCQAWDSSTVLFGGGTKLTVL
Question: Does B1 bind [1]?
Answer: Result: binds

B2: S144-509 (antibody, V domains shown)
VH: EVQLVQSGAEVKKPGESLKISCKGSAYTFTTYWIGWVRQMPGKGLEWMGIIYPGDSDTRYSPSFQGQVTISADKSISTAYLQWSSLKASDTAMYYCARLLLVAGPFDYWGQGTLVTVSS
VL: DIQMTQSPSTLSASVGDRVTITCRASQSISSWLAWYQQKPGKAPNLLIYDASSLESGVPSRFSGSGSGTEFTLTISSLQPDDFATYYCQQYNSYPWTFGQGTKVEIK
Question: Does B2 bind [2]?
Answer: Result: binds

B3: S144-1079 (antibody, V domains shown)
VH: QVQLVQSGAEVKKPGSSVKVSCKASGDTFGSYSITWVRQAPGQGLEWMGRIIPVLGIANYAQKFQGRVTITADKSTSTAYMELSSLRSEDTAVYYCAGGGCSGGNCYSWYNWFDPWGQGSLVTVSS
VL: EIVLTQSPGTLSLSPGERATLSCRASQSVSSNYLAWYQQKPGQAPRLLIYGASSRATGIPERFSGSGSGTDFTLTISRLEPEDFAVYYCQQYGRSPYTFGQGTKLEIK
Question: Does B3 bind [2]?
Answer: Result: binds

B4: S24-278 (antibody, V domains shown)
VH: QVQLVQSGAEVKKPGASVKVSCKASGYTFTGYYMHWVRQAPGQGLEWMGWINPNSGDTNYAQKFQGWVTMTRDTSLSTAYMELSRLKSDDTAVYYCARVGVGEYSGRHYYYYGMDVWGQGTTVTVSS
VL: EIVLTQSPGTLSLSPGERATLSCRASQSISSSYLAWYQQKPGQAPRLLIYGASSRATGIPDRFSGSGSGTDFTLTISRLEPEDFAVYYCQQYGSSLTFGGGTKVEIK
Question: Does B4 bind [3]?
Answer: Result: binds

B5: S564-138 (antibody, V domains shown)
VH: QVLLVQSGAEVKKPGASVKVSCKASGYTFTGYYLHWVRQAPGQGLEWMGWINPISGGTNYAQNFQDRVTMTRDTSIITAYMELSRLRSDDTAVYYCARLAYYYDSSAYRGAFDIWGQGTMVTVSS
VL: QSALTQPASVSGSPGQSITISCTGTSSDVGGYNYVSWYQQHPGKAPKLMIYEVSNRPSGVSDRFSGSKSGNTASLTISGLQAEDEADYYCSSYTSSSTYVFGTGTKVTVL
Question: Does B5 bind [4]?
Answer: Result: binds

B6: S564-287 (antibody, V domains shown)
VH: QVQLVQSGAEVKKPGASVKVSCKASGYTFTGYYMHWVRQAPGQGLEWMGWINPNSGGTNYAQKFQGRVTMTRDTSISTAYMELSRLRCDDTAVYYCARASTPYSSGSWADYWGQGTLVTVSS
VL: B5 VL with E52D, D62N, T94A, Y99W, T103G, V107L
Question: Does B6 bind [5]?
Answer: Result: binds

B7: S144-466 (antibody, V domains shown)
VH: EVQLVQSGAEVKKPGESLKISCKGSGYRFTRYWIGWVRQMPGKGLEWMGIIYLGDSETRYSPSFQGQVTISADNSISTAYLQWSSLKASDTAMYYCARSSNWNYGDYWGQGTLVTVSS
VL: DIQMTQSPSTLSASVGDRVTITCRASQSITSWLAWYQQKSGKAPKLLIYDASSLESGVPSRFSGSGSGTEFTLTISSLQPDDFATYYCQQYNSYPWTFGQGTKVEIK
Question: Does B7 bind [2]?
Answer: Result: binds

B8: S144-1406 (antibody, V domains shown)
VH: QVQLVQSGAEVKKPGASVKVSCKASGYTFTTYAMHWVRQAPGQRLEWMGWINAGNGNTKYSQNFQGRVTITRDTSASTAYMELSSLRSEDTAVYYCASLVGGDSSSWYDYMDVWGKGTTVTVSS
VL: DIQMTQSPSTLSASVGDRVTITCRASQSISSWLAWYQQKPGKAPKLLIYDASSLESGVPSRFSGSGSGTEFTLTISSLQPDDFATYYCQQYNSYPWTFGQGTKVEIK
Question: Does B8 bind [4]?
Answer: Result: binds

B9: S24-1378 (antibody, V domains shown)
VH: EVQLVESGGGLVQPGGSLRLSCAASGFTVSSNYMSWVRQAPGKGLEWVSVIYSGGSTYYADSVKGRFTISRHNSKNTLYLQMNSLRAEDTAVYYCAREGYCTNGVCYRHAFDIWGQGTMVTVSS
VL: QTVVTQEPSFSVSPGGTVTLTCGLSSGSVSTSYYPSWYQQTPGQAPRTLIYSTNTRSSGVPDRFSGSILGNKAALTITGAQADDESDYYCVLYMGSGISVFGGGTKLTVL
Question: Does B9 bind [3]?
Answer: Result: binds

B10: S144-843 (antibody, V domains shown)
VH: QVQLVESGGGVVQPGGSVRLSCAASGFDFTNNGMYWVRQAPGKGLEWVAFIRYDGNKQDYADSVKGRFTISRDNSKNTLYLQMSSLRPEDTAVYYCAKGVYTENYGWGQGTLVTVSS
VL: EIVLTQSPGTLSLSPGERATLSCRASQTVTSRYLAWYQQKPGQAPRLLIYGASTRATGIPDRFSGSGSGTDFTLTISRLEPEDFAVYYCQQYGNSPPYTFGQGTKLEIK
Question: Does B10 bind [1]?
Answer: Result: binds

B11: S144-208 (antibody, V domains shown)
VH: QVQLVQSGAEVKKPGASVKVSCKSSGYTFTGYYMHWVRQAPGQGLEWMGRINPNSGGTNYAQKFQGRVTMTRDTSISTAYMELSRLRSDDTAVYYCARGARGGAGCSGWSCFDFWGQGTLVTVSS
VL: QSALTQPRSVSGSPGQSVTISCTGTSSDVGGYKYVSWYQQHPGKAPKLMIYDVSKRPSGVPDRFSGSKSGNTASLTISGLQAEDEGDYYCCSYAGTYSLVFGGGTKVTV
Question: Does B11 bind [1]?
Answer: Result: binds

B12: S144-1299 (antibody, V domains shown)
VH: QVQLQESGPGLVKPSETLSLTCTVSGGSISSYYWSWIRQPPGKGLEWIGYINYRGITNYNPSLKSRVTISVDMSKNQFSLKLSSVTAADTAVYSCARLAVASRGTVDYWGQGTLVTVSS
VL: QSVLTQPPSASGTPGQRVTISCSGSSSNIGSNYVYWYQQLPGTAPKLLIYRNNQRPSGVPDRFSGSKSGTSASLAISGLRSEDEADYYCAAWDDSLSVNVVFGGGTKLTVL
Question: Does B12 bind [5]?
Answer: Result: binds

B13: S144-67 (antibody, V domains shown)
VH: EVQLVQSGAEVKKPGESLKISCKGSGYSFTTYWIAWVRQMPGKGLEWVGIIYPDDSDTRYSPSFQGQVTISADKSIGTAYLQWSSLKASDTAMYYCARGQYYDFWSGAGGVDVWGQGTTVTVSS
VL: QSVLTQPPSVSGAPGQRVTISCTGSRSNIGAGYDVQWYQQVPGTAPKLLISGNSNRPSGVPDRFSGSKSGTSASLAITGLQAEDEADYYCQSYDSSLSGLRVFGGGTKLTVL
Question: Does B13 bind [2]?
Answer: Result: binds

B14: S564-14 (antibody, V domains shown)
VH: EVQLVESGGGLVQPGGSLRLSCAASGLTFSSYWMSWARQAPGKGLEWVANIKKDGSEKYYVDSVKGRFTISRDNAKNSLYLQMNSLRVEDTAVYYCASEPPHYGGNSGAEYFQHWGQGTLVTVSS
VL: SYVLTQPPSVSVAPGKTARITCGGNNIGSKSVHWYQQRPGQAPVLVIYYDSDRPSGIPERFSGSNSGNTATLTISRVEAGDEADYYCQVWDSSSDHHYVFGTGTKVTVL
Question: Does B14 bind [4]?
Answer: Result: binds

B15: S564-152 (antibody, V domains shown)
VH: QVQLVESGGGVVQPGRSLRLSCAASGFTFSYYGMHWVRQAPGKGLEWVAVIWYDGSNKHYADSVKGRFTISRDNSKNTLYLQMNSLRAEDTAVYYCAKNAAPYCSGGSCYGTYFDYWGQGTLVTVSS
VL: DIQMTQSPSSLSASVGDRVTITCQASQDINNYLNWYQQKPGKAPKLLIYDASNLETGVPSRFSGSGSGTDFTFTISSLQPEDIATYYCQQYDNVPPHTFGQGTKLEIK
Question: Does B15 bind [4]?
Answer: Result: binds

B16: S144-741 (antibody, V domains shown)
VH: QVHLVQSGAEVKKPGASVKVSCKASGYTFTGYYMNWVRQAPGQGLEWMGRINPNSGGTNYAQKFQGRVTMTRDTSISTAYMELSRLRSDDAAVYYCARAERYSSSWYNLYYWGQGTLVTVSS
VL: not shown
Question: Does B16 bind [1]?
Answer: Result: binds

B17: S144-175 (antibody, V domains shown)
VH: QVQLVQSGAEVKKPGASVKVSCKASGYTFTGYYMHWVRQAPGQGLEWMGRINPNSGGTNFAQRFQGRVSMTRDTSISTAYMELSSLRSDDTAVYYCARGAKFEHLPFDIWGQGTMVTVSS
VL: QSMLTQPPSASGTPGQRVTISCSGSSSNIGSNYVYWYQQLPGTAPKLLIYRNNQRPSGVPDRFSGSKSGTSASLAISGLRSEDEADYYCAAWDDRRWVFGGGTKLTVL
Question: Does B17 bind [1]?
Answer: Result: binds

B18: S144-69 (antibody, V domains shown)
VH: EVQLVQSGAEVKKPGESLKISCKGSGYSFTSYWIGWVRQMPGKGLEWMGIIYPGDSDTRYSPSFQGQVTISADKSITTAYLQWSSLKASDTAMYYCARTQTTNWFDSWGQGTLVTVSS
VL: DIQMTQSPSTLSVSVGDRVTITCRASQSVSSWLAWYQQKPGKAPKLLIYDASSLESGVPSRFSGSGSGTEFTLTISSLQPDDFATYYCQQYNSFYTFGQGTKLEIK
Question: Does B18 bind [2]?
Answer: Result: binds
